One substance from US20180140742A1 can be followed below.

Assay [1] deals with oriented collagen tube (Porcine Skin Collagen type I) (porcine). In words: depletion assay: tube immersed in fusion protein solution in phosphate buffer; bound = added minus amount left in the supernatant.
For assay [2] the target is unchanged. Briefly: depletion assay: tube immersed in fusion protein solution in phosphate buffer; bound = added minus amount left in the supernatant; told of the other added amounts.

bFGF-PKD-CBD fusion protein gave a binding amount (when 10 µg added) in assay [1] of 9 µg. The protein binding rate in assay [2] stood at 90%.
